Experimental data from the Immune Epitope Database (IEDB).

What was measured:
HLA-A*68:02 = assay: IEDB peptide-MHC binding, purified MHC/competitive/radioactivity; filed as Kd, often an IC50 or EC50 that approximates it; ≥ and ≤ were set here for values at or beyond the usual limits of such assays
HLA-A*24:03 = assay: IEDB peptide-MHC binding, purified MHC/direct/fluorescence; filed as Kd, often an IC50 or EC50 that approximates it; ≥ and ≤ were set here for values at or beyond the usual limits of such assays; details: source organism: Listeria monocytogenes
HLA-B*07:02 = assay: IEDB peptide-MHC binding, purified MHC/competitive/radioactivity; filed as Kd, often an IC50 or EC50 that approximates it; ≥ and ≤ were set here for values at or beyond the usual limits of such assays
HLA-B*35:01 = assay: as above
HLA-B*51:01 = assay: as above
HLA-B*53:01 = assay: as above
HLA-B*54:01 = assay: as above
HLA-A*02:06 = assay: as above
HLA-B*15:01 [1] = assay: as above
HLA-A*01:01 = assay: as above; details: source organism: Dengue virus 4 Philippines/H241/1956
HLA-A*26:01 = assay: as above
HLA-A*30:02 = assay: as above
HLA-A*02:02 = assay: as above; details: source organism: Homo sapiens
HLA-B*15:01 [2] = assay: IEDB peptide-MHC binding, purified MHC/competitive/fluorescence; filed as Kd, often an IC50 or EC50 that approximates it; ≥ and ≤ were set here for values at or beyond the usual limits of such assays; details: source organism: Kurkino virus
HLA-B*08:01 = assay: IEDB peptide-MHC binding, purified MHC/competitive/radioactivity; filed as Kd, often an IC50 or EC50 that approximates it; ≥ and ≤ were set here for values at or beyond the usual limits of such assays; details: source organism: Vaccinia virus WR
HLA-A*23:01 = assay: as above; details: source organism: Dengue virus 3 Martinique/1243/1999
[3] = source organism: Dengue virus 1 Brazil/97-11/1997
[4] = source organism: Dengue virus 3 Martinique/1243/1999
[5] = source organism: Dengue virus 2 Jamaica/1409/1983
[6] = source organism: Mammarenavirus brazilense
[7] = source organism: Dengue virus 4 Philippines/H241/1956
[8] = source organism: Triticum aestivum
[9] = source organism: Vaccinia virus WR
[10] = source organism: Mammarenavirus lassaense
[11] = source organism: Lymphocytic choriomeningitis virus (strain Armstrong)
[12] = source organism: Mammarenavirus choriomeningitidis

Work on TSAGVNMCTL yielded a Kd (HLA-A*68:02; [3]) of 6.97 nM.

Sequence DTVTYKCPHI has a Kd (HLA-A*68:02; [4]) of 89.7 nM.

In the case of AFMRFDDQF, the Kd (HLA-A*24:03) is reported as ≤ 1 nM.

LTYQNKVVRV was tested, and the Kd (HLA-A*68:02; [5]) was 27.9 nM.

For NPIVLHNGM, the Kd (HLA-B*07:02; [6]) was 1760 nM, the Kd (HLA-B*35:01; [6]) was 440 nM and the Kd (HLA-B*51:01; [6]) was ≥ 32400 nM. The Kd (HLA-B*53:01; [6]) was 10500 nM and the Kd (HLA-B*54:01; [6]) was ≥ 78100 nM.

For MSIPATLFV, the Kd (HLA-A*02:06; [3]) was 12.1 nM and the Kd (HLA-A*68:02; [3]) was 0.63 nM.

Sequence MIIMDEAHF has a Kd (HLA-B*15:01 [1]; [3]) of 18.5 nM.

STANIFRGSY was tested, and the Kd (HLA-A*01:01) was 1140 nM, the Kd (HLA-A*26:01; [7]) was 23.6 nM and the Kd (HLA-A*30:02; [7]) was 2.08 nM. It also gave a Kd (HLA-B*15:01 [1]; [7]) of 4.87 nM.

EVEDYGFGV was tested, and the Kd (HLA-A*68:02; [5]) was 7.04 nM.

In the case of QPFLQPQLPY, the Kd (HLA-B*07:02; [8]) is reported as 950 nM, the Kd (HLA-B*35:01; [8]) is reported as 28.6 nM and the Kd (HLA-B*51:01; [8]) is reported as 14500 nM. The Kd (HLA-B*53:01; [8]) was 4580 nM and the Kd (HLA-B*54:01; [8]) was ≥ 46600 nM.

ALMVIGMAM gave a Kd (HLA-B*15:01 [1]; [7]) of 2.62 nM.

In the case of KLREYEAAL, the Kd (HLA-A*02:02) is reported as 27.8 nM and the Kd (HLA-A*68:02; source organism: Homo sapiens) is reported as ≥ 27900 nM.

With SLPLPNFSSL the Kd (HLA-A*02:06; source organism: Homo sapiens) was 641 nM and the Kd (HLA-A*68:02; source organism: Homo sapiens) was 1.19 nM.

In the case of MSTYGWNIV, the Kd (HLA-A*68:02; [4]) is reported as 39.4 nM.

For FQTLTSCTF, the Kd (HLA-B*15:01 [2]) was 35.7 nM.

For SMISRHCCI, the Kd (HLA-B*08:01) was 1.25 nM and the Kd (HLA-B*15:01 [1]; [9]) was 80.7 nM.

YTPEGIIPTL was tested, and the Kd (HLA-A*02:06; [7]) was 21.3 nM and the Kd (HLA-A*68:02; [7]) was 264 nM.

VSVNNVCHM was tested, and the Kd (HLA-B*15:01 [1]; source organism: Vaccinia virus Copenhagen) was 13.9 nM.

In the case of DPEKFNARMA, the Kd (HLA-B*07:02; [9]) is reported as ≥ 53700 nM, the Kd (HLA-B*35:01; [9]) is reported as ≥ 69900 nM and the Kd (HLA-B*51:01; [9]) is reported as ≥ 40500 nM. For the same sequence, the Kd (HLA-B*53:01; [9]) was ≥ 44700 nM and the Kd (HLA-B*54:01; [9]) was 1010 nM.

EPLSPDTCLL was tested, and the Kd (HLA-B*07:02; [9]) was ≥ 59700 nM, the Kd (HLA-B*35:01; [9]) was 281 nM and the Kd (HLA-B*51:01; [9]) was ≥ 69600 nM. The Kd (HLA-B*53:01; [9]) was 289 nM and the Kd (HLA-B*54:01; [9]) was ≥ 61300 nM.

In the case of ALITVSGLY, the Kd (HLA-A*01:01) is reported as 8110 nM, the Kd (HLA-A*26:01; [7]) is reported as 560 nM and the Kd (HLA-A*30:02; [7]) is reported as 0.68 nM. The Kd (HLA-B*15:01 [1]; [7]) was 2.26 nM.

With ETNMITLLV the Kd (HLA-A*01:01) was 209 nM, the Kd (HLA-A*26:01; [7]) was 338 nM and the Kd (HLA-A*68:02; [7]) was 7.24 nM.

YVVIGLLFMI was tested, and the Kd (HLA-A*02:06; [3]) was 140 nM and the Kd (HLA-A*68:02; [3]) was 102 nM.

SASSMVNGV gave a Kd (HLA-A*68:02; [5]) of 24.3 nM.

NPQAQGSV was tested, and the Kd (HLA-B*07:02; [8]) was 3660 nM, the Kd (HLA-B*35:01; [8]) was ≥ 87800 nM and the Kd (HLA-B*51:01; [8]) was 6060 nM. For the same sequence, the Kd (HLA-B*53:01; [8]) was ≥ 87700 nM and the Kd (HLA-B*54:01; [8]) was 10900 nM.

For EIYTYFSHC, the Kd (HLA-B*15:01 [1]; [9]) was 933 nM.

Sequence LPDALLFTL has a Kd (HLA-B*07:02; [6]) of 201 nM, a Kd (HLA-B*35:01; [6]) of 13.3 nM and a Kd (HLA-B*51:01; [6]) of 3330 nM. For the same sequence, the Kd (HLA-B*53:01; [6]) was 14.6 nM and the Kd (HLA-B*54:01; [6]) was 2890 nM.

For ALLLLVAHY, the Kd (HLA-A*30:02; [5]) was ≥ 76900 nM and the Kd (HLA-B*15:01 [1]; [5]) was 50.6 nM.

In the case of NTNKHMLEF, the Kd (HLA-B*15:01 [1]; [9]) is reported as 11.8 nM.

In the case of MPDCGMSVL, the Kd (HLA-B*07:02; [10]) is reported as 100 nM, the Kd (HLA-B*35:01; [10]) is reported as 4.63 nM and the Kd (HLA-B*51:01; [10]) is reported as 2810 nM. It also gave a Kd (HLA-B*53:01; [10]) of 83.3 nM and a Kd (HLA-B*54:01; [10]) of 2720 nM.

For RTNAAMGAVF, the Kd (HLA-A*23:01) was 2050 nM, the Kd (HLA-A*26:01; [4]) was ≥ 57300 nM and the Kd (HLA-B*15:01 [1]; [4]) was 19.4 nM.

HPIMYYTKF was tested, and the Kd (HLA-B*07:02; [11]) was 134 nM, the Kd (HLA-B*35:01; [11]) was 17.7 nM and the Kd (HLA-B*51:01; [11]) was 1600 nM. It also gave a Kd (HLA-B*53:01; [11]) of 14.5 nM and a Kd (HLA-B*54:01; [11]) of 3770 nM.

For CPFLFLMLL, the Kd (HLA-B*07:02; [12]) was ≥ 77400 nM, the Kd (HLA-B*35:01; [12]) was 1420 nM and the Kd (HLA-B*51:01; [12]) was ≥ 45900 nM. For the same sequence, the Kd (HLA-B*53:01; [12]) was 2100 nM and the Kd (HLA-B*54:01; [12]) was 142 nM.

For MVMTTTANWL, the Kd (HLA-A*68:02; [7]) was 6.51 nM.

LPHIIDEVM was tested, and the Kd (HLA-B*07:02; [12]) was 154 nM, the Kd (HLA-B*35:01; [12]) was 15 nM and the Kd (HLA-B*51:01; [12]) was 9360 nM. For the same sequence, the Kd (HLA-B*53:01; [12]) was 842 nM and the Kd (HLA-B*54:01; [12]) was 9010 nM.
